Legend:
[1] = biological target: T1, 金黄色葡萄球菌肠毒素A (Staphylococcus aureus, UniProt P0A0L2 25-257); assay: phage ELISA on coated SEA
T1 sequence: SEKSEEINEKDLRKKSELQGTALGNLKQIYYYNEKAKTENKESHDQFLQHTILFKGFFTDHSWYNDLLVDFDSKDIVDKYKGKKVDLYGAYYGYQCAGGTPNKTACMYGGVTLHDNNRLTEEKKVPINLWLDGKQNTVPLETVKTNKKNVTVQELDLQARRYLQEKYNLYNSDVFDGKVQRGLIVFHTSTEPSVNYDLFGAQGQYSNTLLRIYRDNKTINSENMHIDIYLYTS

[2] = biological target: T2, 金黄色葡萄球菌肠毒素B (Staphylococcus aureus, UniProt P01552 28-266); assay: direct ELISA, antigen coated, HRP-conjugated nanobody
T2 sequence: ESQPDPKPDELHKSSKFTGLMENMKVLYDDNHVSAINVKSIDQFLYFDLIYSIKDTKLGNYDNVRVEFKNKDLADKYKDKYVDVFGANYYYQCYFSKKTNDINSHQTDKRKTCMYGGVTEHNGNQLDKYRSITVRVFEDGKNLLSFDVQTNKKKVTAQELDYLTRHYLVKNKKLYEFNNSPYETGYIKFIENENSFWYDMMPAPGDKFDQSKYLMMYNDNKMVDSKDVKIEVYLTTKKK

B1: 金黄色葡萄球菌肠毒素A纳米抗体A13 (VHH)
VHH: ESGGGSVQAGGSLRLSCAASGDAYMCKCMGWFRQGPGKEREKVAAIYITDGSTYYADSVKGRFTLSQDNAKNTVYLQMNSLKPEDTAMYYCAASTFYGCETGLHGYNYWGQGTQVTVS
B1: binds [1]; no binding (tested: 500ng/mL (coating)) [2].

From CN110526967A (UNIV NORTHWEST A&F, dated 2019)
